Assay results published in patent US20220372164A1 (CITY OF HOPE, published 2022).
Blank lines part the entries; values can stand above or below the binder they belong to.

How the values were obtained:
truncated EGFR (EGFRt) [1] = biological target: T1, truncated EGFR (EGFRt) (human, UniProt P00533 334-668); assay: flow cytometry, biotinylated soluble FcγR + SA-PE on T cells
T1 construct: Expressed alone on T cells as the control without a CAR; also called huEGFRt; EGFRt marker
Protocol: Antibodies and Flow Cytometry. Fluorochrome-conjugated isotype controls, anti-CD3, anti-CD4, anti-CD8, anti-CD45 and streptavidin were obtained from BD Biosciences (San Jose, Calif.). Biotinylated anti-Fc was purchased from Jackson ImmunoResearch Laboratories, Inc. (West Grove, Pa.). Generation of biotinylated-cetuximab was previously described (Wang et al. 2011a). […] The percentage of immunofluorescent cells were analyzed by a FACScalibur system (BD Biosciences), and the percentage of cells in a region of analysis were calculated using FCS Express V3 (De Novo Software, CA, USA).
To determine the efficacy of the different mutations/deletion in the CAR to affect FcR binding, flow cytometric analysis was performed using various human and murine biotinylated soluble FcγRs, and PE-streptavidin (SA-PE) to detect the binding of the FcγRs to the different cell populations.

truncated EGFR (EGFRt) [2] = biological target: T1, truncated EGFR (EGFRt); assay: flow cytometry, titration of biotinylated soluble human FcγR1 + SA-PE on T cells

binding result (truncated EGFR (EGFRt) [1]): no binding
B1: biotinylated soluble human FcγR2a (receptor, UniProt P12318 34-218, looked up)
chain: QAAAPPKAVLKLEPPWINVLQEDSVTLTCQGARSPESDSIQWFHNGNLIPTHTQPSYRFKANNNDSGEYTCQTGQTSLSDPVHLTVLSEWLVLQTPHLEFQEGETIMLRCHSWKDKPLVKVTFFQNGKSQKFSHLDPTFSIPQANHSHSGDYHCTGNIGYTLFSSKPVTITVQVPSMGSSSPMGI
modifications: biotinylated
notes: Bought reagent; also called huFcγR2a; Hu R2a

binding result (truncated EGFR (EGFRt) [2]): no binding
B2: biotinylated soluble human Fc gamma receptor 1 (receptor, UniProt P12314 16-288, looked up)
chain: QVDTTKAVITLQPPWVSVFQEETVTLHCEVLHLPGSSSTQWFLNGTATQTSTPSYRITSASVNDSGEYRCQRGLSGRSDPIQLEIHRGWLLLQVSSRVFTEGEPLALRCHAWKDKLVYNVLYYRNGKAFKFFHWNSNLTILKTNISHNGTYHCSGMGKHRYTSAGISVTVKELFPAPVLNASVTSPLLEGNLVTLSCETKLLLQRPGLQLYFSFYMGSKTLRGRNTSSEYQILTARREDSGLYWCEAATEDGNVLKRSPELELQVLGLQLPTP
modifications: biotinylated
notes: Bought reagent; also called huFcγR1; human FcγR1

binding result (truncated EGFR (EGFRt) [1]): no binding
B3: biotinylated soluble murine FcγR1 (receptor, UniProt P26151 25-297, looked up)
chain: EVVNATKAVITLQPPWVSIFQKENVTLWCEGPHLPGDSSTQWFINGTAVQISTPSYSIPEASFQDSGEYRCQIGSSMPSDPVQLQIHNDWLLLQASRRVLTEGEPLALRCHGWKNKLVYNVVFYRNGKSFQFSSDSEVAILKTNLSHSGIYHCSGTGRHRYTSAGVSITVKELFTTPVLRASVSSPFPEGSLVTLNCETNLLLQRPGLQLHFSFYVGSKILEYRNTSSEYHIARAEREDAGFYWCEVATEDSSVLKRSPELELQVLGPQSSAP
modifications: biotinylated
notes: Bought reagent; also called muFcγR1; Mu FcγR1

binding result (truncated EGFR (EGFRt) [1]): no binding
B4: biotinylated soluble murine FcγR2b (receptor, UniProt P08101 30-207, looked up)
chain: THDLPKAVVKLEPPWIQVLKEDTVTLTCEGTHNPGNSSTQWFHNGRSIRSQVQASYTFKATVNDSGEYRCQMEQTRLSDPVDLGVISDWLLLQTPQLVFLEGETITLRCHSWRNKLLNRISFFHNEKSVRYHHYSSNFSIPKANHSHSGDYYCKGSLGRTLHQSKPVTITVQGPKSSR
modifications: biotinylated
notes: Bought reagent; also called muFcγR2b; Mu R2b

binding result (truncated EGFR (EGFRt) [1]): no binding
B5: biotinylated soluble human FcγR2b (receptor, UniProt P31994 43-217, looked up)
chain: TPAAPPKAVLKLEPQWINVLQEDSVTLTCRGTHSPESDSIQWFHNGNLIPTHTQPSYRFKANNNDSGEYTCQTGQTSLSDPVHLTVLSEWLVLQTPHLEFQEGETIVLRCHSWKDKPLVKVTFFQNGKSKKFSRSDPNFSIPQANHSHSGDYHCTGNIGYTLYSSKPVTITVQAP
modifications: biotinylated
notes: Bought reagent; also called huFcγR2b; Hu R2b
